Measurements published in publication PMC13161223, “Molecular anatomy of PLK1 master docking motifs” (Nature Communications, 2026).
Blank lines part the entries; values can stand above or below the molecule they belong to. Non-standard residues stand in square brackets, D forms with d. No end group written: not given here. pT = C[C@@H](OP(=O)(O)O)[C@H](N)C(=O)O; MBP = maltose-binding protein

Columns and labels:
[1] = target: singly phosphorylated pT98 peptide of CENP-U (ITC) (human); experiment: ITC; phosphorylated CENP-U construct in the cell, ^MBPPBD in the syringe; 25 °C, 20 mM Hepes pH 7.5, 300 mM NaCl, 1 mM TCEP, 1% glycerol; one set of sites model
[2] = target: Biotin-conjugated ^MBPPBD (immobilised ligand of BLI) (human) (UniProt P53350); experiment: BLI; biotin-conjugated ^MBPPBD immobilised on streptavidin sensors, CENP-U variants as analyte; 25 °C, 20 mM HEPES pH 7.5, 2.5% glycerol, 300 mM NaCl, 0.1 mM TCEP, 0.3 g/L BSA, 0.05% Tween20; KD from koff/kon of the global fit
[3] = target: T1, Biotin-conjugated ^MBPPBD (immobilised ligand of BLI) (human, UniProt P53350 345-603, biotin (Gly-Gly-Gly-Gly-Biotin conjugated to the C-terminal PLPETG peptide by sortase A)); experiment: as above; conditions: both partners purified
T1 construct: PLK1, human, residues 345-603 (Polo-box domain construct); As m1 with a C-terminal PLPETG peptide used for biotin labelling; held on streptavidin sensors; also called immobilized PBD; source: E. coli BL21 (DE3), purified (HisTALON, SEC), biotin-labelled with sortase A; not shown: MBP, N-terminal, kept; PLPETG peptide conjugated with Gly-Gly-Gly-Gly-Biotin, C-terminal, kept

[4] = target: T2, ^MBPPBD (6xHis-MBP-TEV-PLK1^345-603) (human, UniProt P53350 345-603); experiment: BLI; biotin-conjugated phosphorylated ^MBPCENP-U^58-114 immobilised on streptavidin sensors, ^MBPPBD or ^6HisPLK1^FL as analyte; 25 °C, 20 mM HEPES pH 7.5, 2.5% glycerol, 300 mM NaCl, 0.1 mM TCEP, 0.3 g/L BSA, 0.05% Tween20; one site for pT78, two sites (KD1, KD2) for pT98 and pT78/pT98; conditions: both partners purified
T2 construct: PLK1, human, residues 345-603 (Polo-box domain construct); The plasmids paragraph speaks of expression in insect cells, the purification paragraph of E. coli BL21 (DE3); TEV site between MBP and PLK1; source: E. coli BL21 (DE3), purified (HisTALON, SEC); not shown: MBP, N-terminal, kept

[5] = target: T3, ^6HisPLK1^FL (6xHis-TEV-PLK1, full length) (human, UniProt P53350 1-603); experiment: as above; conditions: both partners purified
T3 construct: PLK1, human, 603 residues, full length; also called full length PLK1; source: insect cells (plasmid from a previous study), purified (HisTALON, SEC); not shown: 6xHis, N-terminal, kept

[6] = target: T2, ^MBPPBD (6xHis-MBP-TEV-PLK1^345-603); experiment: SEC; analytical SEC, Superdex 200 5/150, 20 mM Bis-tris/HCl pH 6.5, 250 mM NaCl, 5% glycerol, 1 mM TCEP, 4 °C; PBD added 2:1 to the CENP-U variant (10 µM ^MBPPBD and 5 µM ^MBPCENP-U^58-114 in Fig. 1C); conditions: both partners purified
[7] = target: T2, ^MBPPBD (6xHis-MBP-TEV-PLK1^345-603); experiment: ITC; phosphorylated CENP-U construct in the cell, ^MBPPBD in the syringe; 25 °C, 20 mM Hepes pH 7.5, 300 mM NaCl, 1 mM TCEP, 1% glycerol; one set of sites model; conditions: both partners purified

T1 sequence (P53350 345-603): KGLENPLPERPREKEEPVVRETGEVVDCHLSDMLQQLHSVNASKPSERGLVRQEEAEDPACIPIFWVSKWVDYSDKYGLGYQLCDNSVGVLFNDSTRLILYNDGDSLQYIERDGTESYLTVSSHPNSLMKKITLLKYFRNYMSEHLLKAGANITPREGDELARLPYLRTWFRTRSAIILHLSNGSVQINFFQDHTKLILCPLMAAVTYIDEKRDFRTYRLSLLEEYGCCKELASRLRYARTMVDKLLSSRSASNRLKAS
Sequence of Biotin-conjugated ^MBPPBD (immobilised ligand of BLI) (human) (P53350 345-603): as above
T2 sequence (P53350 345-603): as above
T3 sequence (P53350 whole entry): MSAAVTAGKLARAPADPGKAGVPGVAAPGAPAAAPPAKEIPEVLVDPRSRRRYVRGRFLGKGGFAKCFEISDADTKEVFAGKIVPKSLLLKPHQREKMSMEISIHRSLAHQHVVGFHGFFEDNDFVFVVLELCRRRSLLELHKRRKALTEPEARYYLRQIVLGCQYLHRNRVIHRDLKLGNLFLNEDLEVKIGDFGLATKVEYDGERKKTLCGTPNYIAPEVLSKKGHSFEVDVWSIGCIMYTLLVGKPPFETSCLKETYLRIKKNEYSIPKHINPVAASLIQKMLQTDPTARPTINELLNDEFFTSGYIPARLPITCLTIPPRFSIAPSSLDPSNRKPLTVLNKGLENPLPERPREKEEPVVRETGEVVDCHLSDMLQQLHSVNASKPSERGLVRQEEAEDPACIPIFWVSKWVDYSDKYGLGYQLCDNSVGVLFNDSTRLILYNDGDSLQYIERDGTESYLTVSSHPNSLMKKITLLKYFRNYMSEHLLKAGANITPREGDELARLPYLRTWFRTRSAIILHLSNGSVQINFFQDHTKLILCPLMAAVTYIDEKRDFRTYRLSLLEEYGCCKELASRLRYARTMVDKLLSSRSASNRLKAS

Kd [4]: 1.9 nM
koff [4]: 0.00052 s⁻¹
kon [4]: 280000 M⁻¹ s⁻¹
Kd [5]: 22 nM
koff [5]: 0.0033 s⁻¹
kon [5]: 150000 M⁻¹ s⁻¹
B2: biotin-conjugated ^MBPCENP-U^58-114/pT78 (immobilised ligand of BLI) (domain or fragment, human, UniProt Q71F23 58-114, looked up)
chain: LGENEKDEETYETFDPPLHS[pT]AIYADEEEFSKHCGLSLSSTPPGKEAKRSSDTSGNE
modifications: not fully specified (N-terminus); also: N-terminal MBP fusion protein, C-terminal PLPETG tag ligated by sortase A to Gly4-biotin
notes: source: E. coli BL21 (DE3), purified; phosphorylated in vitro with PLK1; biotin-labelled with sortase A; not shown: MBP, N-terminal, kept; PLPETG peptide conjugated with Gly-Gly-Gly-Gly-Biotin, C-terminal, kept

Kd [7]: ~1.9 nM
Molecule: LGENEKDEETYETFDPPLHS[pT]AIYAD (domain or fragment) [singly phosphorylated pT78 peptide of CENP-U (ITC)]

Kd [3]: 88 nM
koff [3]: 0.0077 s⁻¹
kon [3]: 87000 M⁻¹ s⁻¹
B6: ^MBPCENP-U^58-83/F71A/pT78 (domain or fragment, human, UniProt Q71F23 58-83, looked up)
chain: LGENEKDEETYETADPPLHS[pT]AIYAD
modifications: also: N-terminal MBP fusion protein
notes: CENP-U (PBIP1), human, residues 58-83 (Motif 1); source: E. coli BL21 (DE3), purified; not shown: MBP, N-terminal, kept

Kd [3]: 230 nM
koff [3]: 0.011 s⁻¹
kon [3]: 47000 M⁻¹ s⁻¹
B7: ^MBPCENP-U^58-83/Y68A/F71A/pT78 (domain or fragment, human, UniProt Q71F23 58-83, looked up)
chain: LGENEKDEETAETADPPLHS[pT]AIYAD
modifications: also: N-terminal MBP fusion protein
notes: as for B6

Further lines, the molecule ahead of its results:

Molecule: ^MBPPBD (6xHis-MBP-TEV-PLK1^345-603) (from UniProt P53350 345-603) (domain or fragment)
Kd [1]: 380 nM

Molecule: ^MBPCENP-U^84-114/pT98 (from UniProt Q71F23 84-114) (domain or fragment)
Kd [2]: 400 nM
koff [2]: 0.0028 s⁻¹
kon [2]: 7100 M⁻¹ s⁻¹

B1: ^MBPCENP-U^58-114/pT78/F87A/T98V (domain or fragment, human, UniProt Q71F23 58-114, looked up)
chain: LGENEKDEETYETFDPPLHS[pT]AIYADEEEASKHCGLSLSSVPPGKEAKRSSDTSGNE
modifications: also: N-terminal MBP fusion protein
notes: source: E. coli BL21 (DE3), purified; phosphorylated in vitro with only PLK1; not shown: MBP, N-terminal, kept
Kd [3]: 7.2 nM
koff [3]: 0.001 s⁻¹
kon [3]: 140000 M⁻¹ s⁻¹

B3: ^MBPCENP-U^58-114 (6xHis-MBP-TEV-CENP-U^58-114), unphosphorylated (domain or fragment, human, UniProt Q71F23 58-114, looked up)
chain: {6xHis-MBP-TEV}-LGENEKDEETYETFDPPLHSTAIYADEEEFSKHCGLSLSSTPPGKEAKRSSDTSGNE
notes: The plasmids paragraph speaks of expression in insect cells, the purification paragraph of E. coli; source: E. coli BL21 (DE3), purified (HisTALON, Resource Q, SEC); not shown: MBP, N-terminal, kept
binding result [6]: binds

B4: ^MBPCENP-U^58-83/pT78 (domain or fragment, human, UniProt Q71F23 58-83, looked up)
chain: LGENEKDEETYETFDPPLHS[pT]AIYAD
modifications: also: N-terminal MBP fusion protein
notes: CENP-U (PBIP1), human, residues 58-83 (Motif 1); also called PLK1-phosphorylated ^MBPCENP-U^58-83; phosphorylated Motif 1; source: E. coli BL21 (DE3), purified; not shown: MBP, N-terminal, kept
Kd [3]: 2.5 nM
koff [3]: 0.00034 s⁻¹
kon [3]: 140000 M⁻¹ s⁻¹

B5: ^MBPCENP-U^58-83 (6xHis-MBP-TEV-CENP-U^58-83), unphosphorylated (domain or fragment, human, UniProt Q71F23 58-83, looked up)
chain: {6xHis-MBP-TEV}-LGENEKDEETYETFDPPLHSTAIYAD
notes: CENP-U (PBIP1), human, residues 58-83 (Motif 1); also called Motif 1; unphosphorylated Motif 1; source: E. coli BL21 (DE3), purified (HisTALON, Resource Q, SEC); not shown: MBP, N-terminal, kept
Kd [3]: 10000 nM
koff [3]: 0.00028 s⁻¹
kon [3]: 28 M⁻¹ s⁻¹

B8: ^MBPCENP-U^84-114 F87A, phosphorylated with CDK1 (domain or fragment, human, UniProt Q71F23 84-114, looked up)
chain: EEEASKHCGLSLSS[pT]PPGKEAKRSSDTSGNE
modifications: also: N-terminal MBP fusion protein
notes: also called F87 to alanine mutant of Motif 2; source: E. coli BL21 (DE3), purified; phosphorylated in vitro with CDK1; not shown: MBP, N-terminal, kept
binding result [6]: binds
